Results as given in PMC13038412, “Hetero-oligomerization drives structural plasticity of eukaryotic peroxiredoxins” (Nature Chemical Biology, 2026).

Key:
[1] = target: T1, His6-Tsa2-EPEA (S. cerevisiae); assay: negative-stain EM; 0.02 mg/ml purified sample in 10 mM HEPES/NaOH pH 8, 137 mM NaCl, 2 mM KCl; 2% uranyl acetate; hetero-oligomer: the 0.88 mol/mol fraction
T1 sequence (Q04120 1-196, looked up): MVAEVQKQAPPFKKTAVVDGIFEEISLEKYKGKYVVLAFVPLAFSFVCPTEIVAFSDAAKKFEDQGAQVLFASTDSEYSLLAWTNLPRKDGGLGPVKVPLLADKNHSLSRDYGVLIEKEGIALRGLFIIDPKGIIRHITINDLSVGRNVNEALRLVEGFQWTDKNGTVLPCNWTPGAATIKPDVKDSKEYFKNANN

[2] = target: T1, His6-Tsa2-EPEA (S. cerevisiae); assay: MALDI-TOF MS of disulfide-linked dimers; purified homo-oligomers and three tandem-purified hetero-oligomer fractions in 0.1% TFA, DHAP matrix, linear positive mode; dimers reducible with DTT
[3] = target: roGFP2-AtBAS1B (A. thaliana); assay: native gel or EMSA; clear native PAGE of lysates from Δtsa1Δtsa2 yeast coexpressing a roGFP2-peroxiredoxin fusion with an empty vector or an unfused peroxiredoxin; imaged for GFP fluorescence
[4] = target: roGFP2-LiPrx1 (L. infantum); assay: as above
[5] = target: the molecule itself; assay: negative-stain EM; 0.02 mg/ml purified sample in 10 mM HEPES/NaOH pH 8, 137 mM NaCl, 2 mM KCl; 2% uranyl acetate; hetero-oligomer: the 0.88 mol/mol fraction
[6] = target: the molecule itself; assay: MALDI-TOF MS of disulfide-linked dimers; purified homo-oligomers and three tandem-purified hetero-oligomer fractions in 0.1% TFA, DHAP matrix, linear positive mode; dimers reducible with DTT
His6-Tsa2 = target: T2, His6-Tsa2 (S. cerevisiae, UniProt Q04120 1-196); assay: pull-down; both genes coexpressed from one pCOLADuet plasmid in E. coli; tandem-affinity purification Ni-NTA then StrepTactin, or vice versa; eluates on reducing SDS-PAGE, western blot (semiquantitative, calibrated with individually purified proteins); conditions: partners not purified
T2 construct: Tsa2, Prx1/AhpC-type peroxiredoxin of Saccharomyces cerevisiae; TSA2 from pET15b/His6-TSA2; calculated mass of His6-Tsa2 23.8 kDa; also called His6-tagged Tsa2; His-Tsa2; source: E. coli SHuffle T7 Express, purified (Ni-NTA) from pET15b; or coexpressed with Strep-Tsa1 / Strep-Tsa1ΔCR from pCOLADuet and tandem purified (Ni-NTA, StrepTactin); not shown: His6, N-terminal, kept
T2 sequence (looked up): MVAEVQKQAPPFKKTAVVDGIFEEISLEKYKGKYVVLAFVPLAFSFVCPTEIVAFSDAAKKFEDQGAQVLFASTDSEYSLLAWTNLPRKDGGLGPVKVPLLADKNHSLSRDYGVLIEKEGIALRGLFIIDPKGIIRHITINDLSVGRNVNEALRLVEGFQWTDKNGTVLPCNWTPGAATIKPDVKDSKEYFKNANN

[7] = target: the molecule itself; assay: native gel or EMSA; clear native PAGE (3-12%) of yeast lysates, imaged for GFP fluorescence; roGFP2 fusions expressed from the genomic loci; cells untreated or treated with 1 mM H2O2 for the indicated times; lysis with 20 mM NEM
[8] = target: the molecule itself; assay: mass photometry; 5 µM purified samples incubated 15 min at 20, 30, 40 or 45 °C, diluted 25x into 10 mM HEPES/NaOH pH 8, 137 mM NaCl, 2 mM KCl; Refeyn OneMP; disulfide-linked oxidation form
[9] = target: the molecule itself; assay: native gel or EMSA; clear native PAGE of lysates from Δtsa1Δtsa2 yeast coexpressing a roGFP2-peroxiredoxin fusion with an empty vector or an unfused peroxiredoxin; imaged for GFP fluorescence

His6-Tsa2-EPEA (enzyme) gave a stoichiometry N [1] of 10 and a stoichiometry N [2] of 2.

In the case of roGFP2-AtBAS1B (enzyme), the stoichiometry N [3] is reported as 10.

For roGFP2-LiPrx1 (enzyme), the stoichiometry N [4] was 10.

B1: Strep-Tsa1 (enzyme, S. cerevisiae, UniProt P34760 1-196, looked up)
chain: MVAQVQKQAPTFKKTAVVDGVFDEVSLDKYKGKYVVLAFIPLAFTFVCPTEIIAFSEAAKKFEEQGAQVLFASTDSEYSLLAWTNIPRKEGGLGPINIPLLADTNHSLSRDYGVLIEEEGVALRGLFIIDPKGVIRHITINDLPVGRNVDEALRLVEAFQWTDKNGTVLPCNWTPGAATIKPTVEDSKEYFEAANK
notes: Tsa1, Prx1/AhpC-type peroxiredoxin of Saccharomyces cerevisiae; TSA1 subcloned from pET15b/His-TSA1; calculated mass of Strep-Tsa1 22.9 kDa; Dimer-decamer equilibrium; also called Strep-tagged Tsa1; Tsa1 homo-oligomer; source: E. coli SHuffle T7 Express, purified (StrepTactin) from pET45b; or coexpressed with His6-Tsa2 / His6-Tsa2-EPEA from pCOLADuet-1 and tandem purified (Ni-NTA, StrepTactin); …
With B1 the “stoichiometry N” value [5] was 10, the “stoichiometry N” value [6] was 2 and the “stoichiometry N” value (His6-Tsa2) was about 1 Strep-Tsa1 per His6-Tsa2.

B2: roGFP2-Tsa1 (enzyme, S. cerevisiae, UniProt P34760 1-196, looked up)
chain: MVAQVQKQAPTFKKTAVVDGVFDEVSLDKYKGKYVVLAFIPLAFTFVCPTEIIAFSEAAKKFEEQGAQVLFASTDSEYSLLAWTNIPRKEGGLGPINIPLLADTNHSLSRDYGVLIEEEGVALRGLFIIDPKGVIRHITINDLPVGRNVDEALRLVEAFQWTDKNGTVLPCNWTPGAATIKPTVEDSKEYFEAANK
notes: Tsa1 of Saccharomyces cerevisiae, roGFP2-tagged version replacing TSA1 at its endogenous locus; source: S. cerevisiae, gene integrated at the TSA1 genomic locus under the native promoter, in lysate
For B2, the “stoichiometry N” value [7] was 2.

B3: His6-GFP-TEV-Tsa2 (enzyme, S. cerevisiae, UniProt Q04120 1-196, looked up)
chain: MVAEVQKQAPPFKKTAVVDGIFEEISLEKYKGKYVVLAFVPLAFSFVCPTEIVAFSDAAKKFEDQGAQVLFASTDSEYSLLAWTNLPRKDGGLGPVKVPLLADKNHSLSRDYGVLIEKEGIALRGLFIIDPKGIIRHITINDLSVGRNVNEALRLVEGFQWTDKNGTVLPCNWTPGAATIKPDVKDSKEYFKNANN
notes: Tsa2 of Saccharomyces cerevisiae, behind His6, GFP and a TEV site; Probably made in E. coli (AhpC contamination was detected); also called Tsa2 with an N-terminal GFP tag; not shown: His6, N-terminal, kept; GFP, N-terminal, kept
B3: binds [8].

B4: roGFP2-AtBAS1A (enzyme, A. thaliana, UniProt Q96291 66-266, looked up)
chain: KAQADDLPLVGNKAPDFEAEAVFDQEFIKVKLSDYIGKKYVILFFYPLDFTFVCPTEITAFSDRHSEFEKLNTEVLGVSVDSVFSHLAWVQTDRKSGGLGDLNYPLISDVTKSISKSFGVLIHDQGIALRGLFIIDKEGVIQHSTINNLGIGRSVDETMRTLQALQYIQENPDEVCPAGWKPGEKSMKPDPKLSKEYFSAI
notes: AtBAS1A, Prx1/AhpC-type peroxiredoxin of the chloroplast stroma of Arabidopsis thaliana; source: Δtsa1Δtsa2 yeast, expressed from a plasmid, in lysate
With B4 the “stoichiometry N” value [9] was 2.
